Read-outs that look alike come from different tables or passages of the source.
What was measured:
[1] = biological target: human Cdc42 (residues 1-191) (human) (UniProt P60953)
[2] = biological target: human RhoA (residues 1-193) (human) (UniProt P61586)
[3] = biological target: human Cdc42 (residues 1-191) (human) (UniProt P60953); assay: ITC
[4] = biological target: human RhoA (residues 1-193) (human) (UniProt P61586); assay: ITC
[5] = biological target: human Cdc42 (residues 1-191) (human) (UniProt P60953); remark: listed apart in the source
[6] = biological target: human RhoA (residues 1-193) (human) (UniProt P61586); remark: listed apart in the source
[7] = biological target: human Cdc42 (residues 1-191) (human) (UniProt P60953); assay: ITC; remark: listed apart in the source
[8] = biological target: human RhoA (residues 1-193) (human) (UniProt P61586); assay: ITC; remark: listed apart in the source
[9] = biological target: human Rac1 (residues 1-192) (human) (UniProt P63000); assay: ITC

Chain of UniProt P60953 (P60953 whole entry, the tested form may be a part): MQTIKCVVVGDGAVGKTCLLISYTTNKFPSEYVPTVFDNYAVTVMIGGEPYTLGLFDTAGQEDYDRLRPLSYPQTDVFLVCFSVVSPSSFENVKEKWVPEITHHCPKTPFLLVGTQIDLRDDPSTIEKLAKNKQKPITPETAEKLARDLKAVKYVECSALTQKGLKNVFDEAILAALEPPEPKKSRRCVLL
Chain of UniProt P61586 (P61586 whole entry, the tested form may be a part): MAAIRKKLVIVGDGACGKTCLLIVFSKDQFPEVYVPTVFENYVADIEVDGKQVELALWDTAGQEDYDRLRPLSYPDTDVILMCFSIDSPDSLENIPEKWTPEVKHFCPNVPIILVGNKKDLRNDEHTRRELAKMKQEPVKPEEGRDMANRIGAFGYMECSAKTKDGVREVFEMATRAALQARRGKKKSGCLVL

Row | Substance | KM of GAP-stimulated GTP hydrolysis (MESG/PNP assay), GTP·Mg2+-loaded Cdc42 [1] | kcat/KM of GAP-stimulated GTP hydrolysis (MESG/PNP assay), GTP·Mg2+-loaded Cdc42 [1] | KM of GAP-stimulated GTP hydrolysis (MESG/PNP assay), GTP·Mg2+-loaded RhoA [2] | kcat/KM of GAP-stimulated GTP hydrolysis (MESG/PNP assay), GTP·Mg2+-loaded RhoA [2] | Ka [3] | dH [3] | Ka [4] | dH [4] | kcat of GAP-stimulated GTP hydrolysis (MESG/PNP assay), GTP·Mg2+-loaded Cdc42 [5] | KM of GAP-stimulated GTP hydrolysis (MESG/PNP assay), GTP·Mg2+-loaded RhoA [6] | kcat of GAP-stimulated GTP hydrolysis (MESG/PNP assay), GTP·Mg2+-loaded RhoA [6] | kcat/KM of GAP-stimulated GTP hydrolysis (MESG/PNP assay), GTP·Mg2+-loaded RhoA [6] | Ka [7] | dH [7] | Ka [8] | dH [8] | stoichiometry N [3] | fold lower KA than for Cdc42 (m1 with m18) [9] | fold lower KA than for RhoA (m1 with m19) [9] | stoichiometry N [4]
1 | GAP^Graf E253K (domain or fragment) | 10.2 µM | 457000 M⁻¹ s⁻¹ | 8.8 µM | 413000 M⁻¹ s⁻¹ | 445000 M⁻¹ | 10.5 kcal/mol | 643000 M⁻¹ | 12 kcal/mol |  |  |  |  |  |  |  |  |  |  |  | 
2 | GAP^Graf V338A (domain or fragment) | 5.9 µM | 243000 M⁻¹ s⁻¹ | 31.3 µM | 26700 M⁻¹ s⁻¹ | 203000 M⁻¹ | 16.9 kcal/mol | 93000 M⁻¹ | 14.5 kcal/mol |  |  |  |  |  |  |  |  |  |  |  | 
3 | GAP^Graf I358E (domain or fragment) | 12.4 µM |  |  |  | 97000 M⁻¹ | 4.64 kcal/mol | 33000 M⁻¹ | 3.92 kcal/mol |  |  |  |  |  |  |  |  |  |  |  | 
4 | GAP^Graf E253A (domain or fragment) | 19.9 µM | 532000 M⁻¹ s⁻¹ | 11.3 µM | 330000 M⁻¹ s⁻¹ | 298000 M⁻¹ | 7.48 kcal/mol | 456000 M⁻¹ | 10.1 kcal/mol |  |  |  |  |  |  |  |  |  |  |  | 
5 | GAP^Graf I358A (domain or fragment) | 15 µM | 333000 M⁻¹ s⁻¹ | 18.2 µM | 41700 M⁻¹ s⁻¹ | 946000 M⁻¹ | 14 kcal/mol | 255000 M⁻¹ | 14.4 kcal/mol |  |  |  |  |  |  |  |  |  |  |  | 
6 | GAP^Graf R266A (domain or fragment) | 11 µM | 278000 M⁻¹ s⁻¹ | 25 µM | 48300 M⁻¹ s⁻¹ | 773000 M⁻¹ | 13.8 kcal/mol | 93000 M⁻¹ | 10.3 kcal/mol |  |  |  |  |  |  |  |  |  |  |  | 
7 | GAP^Graf V224K (domain or fragment) | 10.2 µM | 457000 M⁻¹ s⁻¹ | 10.3 µM |  | 92000 M⁻¹ | 10.5 kcal/mol | 338000 M⁻¹ | 16.8 kcal/mol |  |  |  |  |  |  |  |  |  |  |  | 
8 | GAP domain of Graf (GTPase Regulator Associated with Focal Adhesion Kinase), wild type (domain or fragment) |  |  |  |  | 2.42e+06 M⁻¹ | 15 kcal/mol | 554000 M⁻¹ | 13 kcal/mol | 3.65 s⁻¹ | 6.8 µM | 1.46 s⁻¹ | 217000 M⁻¹ s⁻¹ | 26100 M⁻¹ | 5.47 kcal/mol | 33800 M⁻¹ | 1.6 kcal/mol | 1 | 100 fold | > 20 fold | 1
9 | GAP^Graf N225A (domain or fragment) | 8 µM | 205000 M⁻¹ s⁻¹ | 24.4 µM | 205000 M⁻¹ s⁻¹ | 1.56e+06 M⁻¹ | 9.85 kcal/mol | 303000 M⁻¹ | 10.7 kcal/mol |  |  |  |  |  |  |  |  |  |  |  | 
10 | GAP^Graf V338L (domain or fragment) | 2.4 µM | 522000 M⁻¹ s⁻¹ | 8.7 µM | 33300 M⁻¹ s⁻¹ | 1.18e+06 M⁻¹ | 15.9 kcal/mol | 220000 M⁻¹ | 9.8 kcal/mol |  |  |  |  |  |  |  |  |  |  |  | 

From publication PMC2656442
